Read-outs that look alike come from different tables or passages of the source.

Assay [1] deals with Abeta 1-40 (human). As to the kind of experiment: SPR.
The next assay concerns the target beta-APP (human). In words: ELISA.
Assay [2] addresses Abeta 1-40 (human).
Assay [3] concerns the target Abeta 1-40 (human). This is another data set of the same source.

Sequence of Abeta 1-40 (human) (P05067 672-711): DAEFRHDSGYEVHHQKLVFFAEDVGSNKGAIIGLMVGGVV
Sequence of beta-APP (human) (chain, as listed by the source): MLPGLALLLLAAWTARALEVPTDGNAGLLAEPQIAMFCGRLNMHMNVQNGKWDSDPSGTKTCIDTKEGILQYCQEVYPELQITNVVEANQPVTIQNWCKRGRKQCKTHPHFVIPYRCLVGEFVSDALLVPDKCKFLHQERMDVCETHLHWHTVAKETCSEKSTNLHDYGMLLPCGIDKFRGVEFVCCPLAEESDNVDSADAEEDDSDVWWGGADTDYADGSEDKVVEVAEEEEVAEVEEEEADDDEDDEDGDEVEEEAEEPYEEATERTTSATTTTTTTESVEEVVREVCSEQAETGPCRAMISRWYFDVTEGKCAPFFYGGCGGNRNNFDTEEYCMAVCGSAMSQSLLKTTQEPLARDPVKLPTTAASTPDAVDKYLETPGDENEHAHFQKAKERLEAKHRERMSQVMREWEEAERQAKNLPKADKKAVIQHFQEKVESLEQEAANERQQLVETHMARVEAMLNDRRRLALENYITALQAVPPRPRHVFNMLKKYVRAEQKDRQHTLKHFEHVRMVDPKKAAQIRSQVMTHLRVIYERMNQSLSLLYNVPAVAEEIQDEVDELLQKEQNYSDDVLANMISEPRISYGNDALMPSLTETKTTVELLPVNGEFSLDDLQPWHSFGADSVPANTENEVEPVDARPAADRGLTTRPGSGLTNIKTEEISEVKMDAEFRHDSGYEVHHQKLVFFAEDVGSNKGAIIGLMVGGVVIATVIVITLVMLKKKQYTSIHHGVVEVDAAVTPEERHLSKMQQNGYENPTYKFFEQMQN

B1: Mouse 2286 Fab (antibody, V domains shown)
VH: EVKLLESGGGLVQPGGSLKLSCAASGFDFSRYWMNWVRQAPGKGLEWIGEINPDSSTINYTPSLKDKFIISRDNAKNTLYLQMSKVRSEDTALYYCARQMGYWGQGTTLTVSS
VL: DIQMTQTTSSLSASLGDRVTISCSASQGISNYLNWFQQKPDGTVKLLIYYTSSLHSGVPSRFSGSGSGTDYSLTISNLEPEDIATYYCQQYRKLPYTFGGGTKLEIKR
B1 returned a Kd with Abeta 1-40 [1] of 76 nM.

B2: 2286 (8A1.2A1) (antibody, V domains shown)
VH: EVKLLESGGGLVQPGGSLKLSCAASGFDFSRYWMNWVRQAPGKGLEWIGEINPDSSTINYTPSLKDKFIISRDNAKNTLYLQMSKVRSEDTALYYCARQMGYWGQGTTLTVSS
VL: DIQMTQTTSSLSASLGDRVTISCSASQGISNYLNWFQQKPDGTVKLLIYYTSSLHSGVPSRFSGSGSGTDYSLTISNLEPEDIATYYCQQYRKLPYTFGGGTKLEIKR
In the case of B2, the binding result in the assay with beta-APP is on record as “no binding”. In the assay with Abeta 1-40 [2], this molecule returned a Kd of 2.7 nM.

B3: Humanized 2286 Fab (O8; VH3) (antibody, V domains shown)
VH: EVQLVESGGGLVQPGGSLRLSCAASYWMNWVRQAPGKGLEWVSEINPDSSTINYTPSLKDRFTISRDNAKNTLYLQMNSLRAEDTAVYYCARQMGYWGQGTTLTVSS
VL: DIQMTQSPSSLSASVGDRVTITCSASQGISNYLNWYQQKPGKAPKLLIYYTSSLHSGVPSRFSGSGSGTDFTFTISSLQPEDIATYYCQQYRKLPYTFGGGTKVEIKR
The molecule B3 had a Kd with Abeta 1-40 [1] of 500 nM.

B4: Humanized 2286 Fab (O8; VH4) (antibody, V domains shown)
VH: QVQLQESGPGLVKPSETLSLTCTVSYWMNWIRQPPGKGLEWIGEINPDSSTINYTPSLKDRVTISKDTSKNQFSLKLSSVTAADTAVYYCARQMGYWGQGTLVTVSS
VL: DIQMTQSPSSLSASVGDRVTITCSASQGISNYLNWYQQKPGKAPKLLIYYTSSLHSGVPSRFSGSGSGTDFTFTISSLQPEDIATYYCQQYRKLPYTFGGGTKVEIKR
Molecule B4 had a Kd with Abeta 1-40 [1] of 500 nM.

B5: 2324 (10B10.2E6) (antibody, V domains shown)
VH: VTLKESGPGILKPSQTLSLTCSFSGFSLSTSGMGVGWIRQSSGKGLEWLAHIWWDDDKYYNPSLKSQLTISKDTSRNQVFLKITSVDTADTATYYCARRGVRHRDYFDYWGQGTTLTVSS
VL: DVLMTQTPLSLPVSLGDQASISCRSSQSIVHSNGNTYLEWYLQKPGQSPKLLIYKVSNRFSGVPDRFSGSGSGTDFTLKISRVEAEDLGVYYCFQGSRVPLTFGAGTKLELKR
On to B5, for which, in the assay with beta-APP, the binding result is “no binding”. The molecule also displayed a Kd with Abeta 1-40 [3] of 0.9 nM.

The values above are taken from US20110038861 (published 2011).
